Data on one molecule can be found in paper PMC6536502, “Structural insights into DNA recognition by AimR of the arbitrium communication system in the SPbeta phage” (Cell Discovery, 2019).

One may read the Kd as the free concentration of one partner at which half of the binding sites on the other are occupied at equilibrium, for simple one-to-one binding.

In one data set the target is T1, AimR K120D (Bacillus phage SPbeta, UniProt O64094 1-386, K120D).
T1 sequence: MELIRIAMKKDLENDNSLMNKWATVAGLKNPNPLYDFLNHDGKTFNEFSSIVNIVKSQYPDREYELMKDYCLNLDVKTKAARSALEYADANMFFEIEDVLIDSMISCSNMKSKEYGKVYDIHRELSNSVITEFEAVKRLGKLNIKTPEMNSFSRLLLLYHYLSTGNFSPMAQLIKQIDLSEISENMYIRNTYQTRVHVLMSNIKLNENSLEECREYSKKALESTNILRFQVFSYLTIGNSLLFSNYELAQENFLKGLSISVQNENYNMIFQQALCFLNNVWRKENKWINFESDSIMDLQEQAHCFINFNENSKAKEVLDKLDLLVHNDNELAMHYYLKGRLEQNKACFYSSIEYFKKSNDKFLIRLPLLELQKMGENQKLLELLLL
Briefly: EMSA; EMSA: 25 mM Tris-HCl pH 8.0, 150 mM NaCl, 5 mM MgCl2, 5 mM DTT, 0.1 mg/ml BSA, 10% glycerol, 50 ug/ml salmon sperm DNA, 4 C, 15 min; smFRET: 20 mM phosphate pH. Conditions: protein: recombinant; tags: 6xHis removed by drICE; chain copies: 2. In general terms: In EMSA bound probe runs differently from free probe, usually more slowly.

For a further data set, the target named is T2, AimR K77D (Bacillus phage SPbeta, UniProt O64094 1-386, K77D).
T2 sequence: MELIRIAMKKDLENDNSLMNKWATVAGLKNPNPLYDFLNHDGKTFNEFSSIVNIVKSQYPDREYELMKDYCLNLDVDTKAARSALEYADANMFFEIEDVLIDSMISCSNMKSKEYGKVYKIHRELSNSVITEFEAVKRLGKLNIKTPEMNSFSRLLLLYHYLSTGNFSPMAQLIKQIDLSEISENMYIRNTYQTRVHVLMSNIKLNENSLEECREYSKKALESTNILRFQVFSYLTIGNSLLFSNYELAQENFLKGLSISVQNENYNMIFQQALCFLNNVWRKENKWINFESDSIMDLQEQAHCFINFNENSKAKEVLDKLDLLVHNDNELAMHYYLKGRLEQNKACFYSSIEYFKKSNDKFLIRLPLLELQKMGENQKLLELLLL
Described as above. Particulars: protein: recombinant; tags: 6xHis removed by drICE; chain copies: 2.

The target of another data set is T3, AimR (Bacillus phage SPbeta, UniProt O64094 1-386).
T3 sequence: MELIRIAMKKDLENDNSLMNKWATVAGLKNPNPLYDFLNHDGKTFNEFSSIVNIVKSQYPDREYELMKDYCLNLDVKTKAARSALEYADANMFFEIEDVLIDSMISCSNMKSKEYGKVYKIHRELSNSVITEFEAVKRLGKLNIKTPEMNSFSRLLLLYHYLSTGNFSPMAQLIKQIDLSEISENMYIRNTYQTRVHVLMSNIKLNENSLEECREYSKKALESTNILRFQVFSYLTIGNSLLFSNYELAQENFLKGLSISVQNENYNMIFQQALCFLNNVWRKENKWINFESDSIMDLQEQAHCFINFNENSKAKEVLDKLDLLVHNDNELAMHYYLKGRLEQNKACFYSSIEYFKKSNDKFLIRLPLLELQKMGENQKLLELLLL
Briefly: EMSA; 5 mM Mg2+; EMSA: 25 mM Tris-HCl pH 8.0, 150 mM NaCl, 5 mM MgCl2, 5 mM DTT, 0.1 mg/ml BSA, 10% glycerol, 50 ug/ml salmon sperm DNA, 4 C, 15 min; smFRET: 20 mM phosphate pH. Conditions: protein: recombinant; tags: C-terminal 8xHis; chain copies: 2.

In the next data set the target is T4, AimR N32A (Bacillus phage SPbeta, UniProt O64094 1-386, N32A).
T4 sequence: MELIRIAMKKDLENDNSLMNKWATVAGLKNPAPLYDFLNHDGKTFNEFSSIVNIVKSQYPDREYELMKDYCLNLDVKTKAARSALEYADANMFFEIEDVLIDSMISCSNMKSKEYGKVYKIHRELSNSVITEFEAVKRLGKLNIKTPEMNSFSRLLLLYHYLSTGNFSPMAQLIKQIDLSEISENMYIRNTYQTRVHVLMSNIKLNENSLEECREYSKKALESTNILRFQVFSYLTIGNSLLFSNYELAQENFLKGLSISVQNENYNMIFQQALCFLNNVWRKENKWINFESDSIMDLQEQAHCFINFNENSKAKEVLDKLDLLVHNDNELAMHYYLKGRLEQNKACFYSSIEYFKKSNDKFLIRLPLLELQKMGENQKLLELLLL
Described as above. Particulars: protein: recombinant; tags: 6xHis removed by drICE; chain copies: 2.

A further data set deals with T5, AimR T44D (Bacillus phage SPbeta, UniProt O64094 1-386, T44D).
T5 sequence: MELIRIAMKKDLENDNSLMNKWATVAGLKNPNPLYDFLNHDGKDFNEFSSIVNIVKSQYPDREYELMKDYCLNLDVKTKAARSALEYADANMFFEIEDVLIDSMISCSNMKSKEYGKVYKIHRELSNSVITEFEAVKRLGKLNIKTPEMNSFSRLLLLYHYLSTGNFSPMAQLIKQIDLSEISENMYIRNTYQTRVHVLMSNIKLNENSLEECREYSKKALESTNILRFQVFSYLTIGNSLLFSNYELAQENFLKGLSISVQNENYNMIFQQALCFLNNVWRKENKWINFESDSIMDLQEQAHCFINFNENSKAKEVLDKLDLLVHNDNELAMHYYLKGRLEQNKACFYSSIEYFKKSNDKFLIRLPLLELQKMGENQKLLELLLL
Described as above. Particulars: protein: recombinant; tags: 6xHis removed by drICE; chain copies: 2.

B1: 31 bp aimX-upstream palindromic DNA (dsDNA)
DNA 1: ACTTAAATATTAGGTTTTAATAACATCTAGT
DNA 2: ACTAGATGTTATTAAAACCTAATATTTAAGT
For the molecule B1, the binding result in the data set with AimR K120D and in the data set with AimR K77D was “binds” throughout. For the same molecule, the dissociation constant Kd in the data set with AimR is 0.101 ± 0.0276 µM; with AimR N32A it was 6.82 ± 2.25 µM. Moreover, the binding signal with AimR T44D was 11 fold lower affinity than WT AimR.
